One data set concerns the target T1, PAH6 Left TAL-PBx (synthetic construct).
T1 chain: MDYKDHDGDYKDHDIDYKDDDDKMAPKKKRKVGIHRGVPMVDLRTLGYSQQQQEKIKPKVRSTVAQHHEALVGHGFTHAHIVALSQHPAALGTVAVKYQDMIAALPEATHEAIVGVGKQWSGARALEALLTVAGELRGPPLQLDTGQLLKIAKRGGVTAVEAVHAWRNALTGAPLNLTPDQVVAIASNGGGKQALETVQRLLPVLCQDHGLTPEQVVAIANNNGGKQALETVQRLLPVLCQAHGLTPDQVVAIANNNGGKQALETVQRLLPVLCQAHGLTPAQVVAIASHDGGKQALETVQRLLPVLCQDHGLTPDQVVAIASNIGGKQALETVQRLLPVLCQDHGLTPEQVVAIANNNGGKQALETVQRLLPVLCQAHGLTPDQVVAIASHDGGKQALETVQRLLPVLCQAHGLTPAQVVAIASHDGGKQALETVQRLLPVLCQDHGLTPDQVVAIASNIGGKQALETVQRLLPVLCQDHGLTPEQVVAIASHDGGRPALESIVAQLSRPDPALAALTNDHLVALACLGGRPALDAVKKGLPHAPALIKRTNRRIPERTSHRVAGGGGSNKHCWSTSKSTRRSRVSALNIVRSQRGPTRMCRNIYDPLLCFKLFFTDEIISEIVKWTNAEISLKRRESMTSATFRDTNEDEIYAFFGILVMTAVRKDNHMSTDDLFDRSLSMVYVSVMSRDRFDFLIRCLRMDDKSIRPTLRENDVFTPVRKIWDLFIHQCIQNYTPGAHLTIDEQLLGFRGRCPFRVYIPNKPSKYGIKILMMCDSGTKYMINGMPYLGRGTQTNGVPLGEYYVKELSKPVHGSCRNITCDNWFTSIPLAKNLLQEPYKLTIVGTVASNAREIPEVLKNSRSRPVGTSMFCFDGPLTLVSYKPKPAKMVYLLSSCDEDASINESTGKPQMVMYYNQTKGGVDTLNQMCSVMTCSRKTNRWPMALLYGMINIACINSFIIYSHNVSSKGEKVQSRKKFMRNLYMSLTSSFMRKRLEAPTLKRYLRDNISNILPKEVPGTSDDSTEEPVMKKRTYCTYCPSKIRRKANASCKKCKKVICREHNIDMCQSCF
As to the kind of experiment: cell_activity; left only. The conditions noted are these: tags: 3xFlag, SV40 NLS.

A further data set concerns the target T2, PAH6 Right TAL-PBx (synthetic construct).
T2 chain: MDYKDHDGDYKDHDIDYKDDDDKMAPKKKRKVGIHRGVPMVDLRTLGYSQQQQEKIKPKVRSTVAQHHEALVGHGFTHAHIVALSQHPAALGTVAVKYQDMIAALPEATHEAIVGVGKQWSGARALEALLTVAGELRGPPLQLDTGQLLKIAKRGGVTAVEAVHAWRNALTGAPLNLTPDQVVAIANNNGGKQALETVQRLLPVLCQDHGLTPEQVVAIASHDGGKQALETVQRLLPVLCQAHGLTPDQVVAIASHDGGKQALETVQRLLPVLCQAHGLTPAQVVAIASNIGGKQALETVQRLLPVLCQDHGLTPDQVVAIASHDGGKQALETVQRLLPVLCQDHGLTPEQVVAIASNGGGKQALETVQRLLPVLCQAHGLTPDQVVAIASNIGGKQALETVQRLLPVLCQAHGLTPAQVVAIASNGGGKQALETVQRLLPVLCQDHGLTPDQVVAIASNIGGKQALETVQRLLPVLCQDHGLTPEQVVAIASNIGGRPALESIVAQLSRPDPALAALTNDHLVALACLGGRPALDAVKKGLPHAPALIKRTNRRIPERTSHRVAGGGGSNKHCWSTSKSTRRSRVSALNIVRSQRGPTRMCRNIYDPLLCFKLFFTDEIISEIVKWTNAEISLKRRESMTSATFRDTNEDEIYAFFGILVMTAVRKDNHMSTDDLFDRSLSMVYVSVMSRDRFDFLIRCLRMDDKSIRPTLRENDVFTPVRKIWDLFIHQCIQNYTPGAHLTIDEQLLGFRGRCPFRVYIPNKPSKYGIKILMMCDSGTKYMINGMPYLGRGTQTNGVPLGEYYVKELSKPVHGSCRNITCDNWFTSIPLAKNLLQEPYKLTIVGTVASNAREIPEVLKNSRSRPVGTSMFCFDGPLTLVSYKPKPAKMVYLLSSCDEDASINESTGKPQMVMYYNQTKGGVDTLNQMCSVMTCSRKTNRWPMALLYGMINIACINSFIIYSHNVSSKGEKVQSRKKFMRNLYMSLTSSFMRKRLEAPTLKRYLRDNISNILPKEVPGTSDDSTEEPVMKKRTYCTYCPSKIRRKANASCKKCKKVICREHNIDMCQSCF
The experiment in a line: cell_activity; right only. The conditions noted are these: tags: 3xFlag, SV40 NLS.

B1: PAH6 target (dsDNA)
DNA 1: TTGGCAGCCACTGTCCTAAATATTTTAACCAAATCAAAATCTTATAGTGGCA
DNA 2: TGCCACTATAAGATTTTGATTTGGTTAAAATATTTAGGACAGTGGCTGCCAA
Turning to B1, the activity was found to be 2.7 % GFP+ with PAH6 Left TAL-PBx and 2.5 % GFP+ with PAH6 Right TAL-PBx.

Values taken from patent publication US20240392262A1, “TRANSPOSASE AND USES THEREOF” (Poseida Therapeutics, Inc., published 2024).
